This data set deals with the molecule itself. Kind of data set: AUC.

Where “and” joins values, the source holds several entries; their conditions need not be identical. Equal values may be shown once.

B1: human BOLA3 (natural protein, UniProt Q53S33 25-107, looked up)
chain: MFATQTEGELRVTQILKEKFPRATAIKVTDISGGCGAMYEIKIESEEFKEKRTVQQHQMVNQALKEEIKEMHGLRIFTSVPKR
Turning to B1, the “stoichiometry N” value was 2 and 4.

A word on the stoichiometry N: it is the number of molecules, sites or subunits per partner or assembly.

The values are drawn from article PMC6812618 (Journal of biological inorganic chemistry : JBIC : a …, 2019).
